Test results reported in the supplement of paper PMC10567573.
± gives the standard deviation.

Experiment: protein stability index of a GFP-peptide fusion (GPS, HEK-293T) (PSI 1-6); higher = more stable
[1] = treatment: DMSO, c terminus: a fixed tail appended
[2] = treatment: MLN4924 1 uM, 8 h, c terminus: a fixed tail appended
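Note: 24-mer peptide tiles fused after GFP, lentivirally expressed, FACS-sorted into six equal bins by GFP/DsRed ratio, decoded by Illumina sequencing, PSI is the read-weighted mean bin number.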

Row | Sequence | protein stability index [1] | protein stability index [2] | protein stability index (treatment: DMSO, c terminus: native) | protein stability index (treatment: MLN4924 1 uM, 8 h, c terminus: native)
1 | AAAIIVYDITKEETFSTLKNWVKE [RAB22A] | 2.67 ± 1.1 | 1.95 ± 0.86 | – | –
2 | AALTNKHSQELTNEKEKALQAQVQ [SASS6] | 5.3 ± 0.086 | 5.46 ± 0.19 | – | –
3 | AAMFGGSFVESANSEVYLPNINKI [RHOBTB1] | 2.93 ± 0.23 | 2.93 ± 0.18 | – | –
4 | AAVKLADFGLAIEVQGDQQAWFGF [CAMK2B] | 2.33 ± 0.75 | 2.62 ± 0.77 | – | –
5 | AAYFLLSTNDKTVKLWKVSERDKR [PPP2R2B] | 2.51 ± 0.51 | 2.49 ± 0.26 | – | –
6 | ACDELFSYLIEKVKRKKNVLRLCC [PRAME] | 2.99 ± 0.43 | 2.7 ± 0.61 | – | –
7 | ADIISTVEFNHTGELLATGDKGGR [PPP2R2C] | 4.52 ± 0.42 | 4.66 ± 0.44 | – | –
8 | AEGVVLSDSPDAADSTSFDVQLGD [PPTC7] | 5.4 ± 0.59 | 5.64 ± 0.15 | – | –
9 | AEKKQELDKLRNEWASHTAALTNK [SASS6] | 4.38 ± 0.26 | 4.79 ± 0.25 | – | –
10 | AEKLCIYTDNSIRPEELLQMELLL [CCND1] | 2.28 ± 0.078 | 2.09 ± 0.36 | – | –
11 | AERLFENQLVGPESIAHIGDVMFT [APMAP] | 2.99 ± 0.38 | 3.16 ± 0.31 | – | –
12 | AERRRAGRLLLTLPLLRQTAGKVL [ESRRA] | 2.348 ± 0.02 | 2.27 ± 0.23 | – | –
13 | AEWLLAVRSIQPEEKERIGQFVFA [AASDHPPT] | 2.29 ± 0.15 | 2.13 ± 0.18 | – | –
14 | AEYPANGSGADRIYDLNIPAFVKF [NCK2] | 2.88 ± 0.33 | 2.7 ± 0.29 | – | –
15 | AFADTHSCRELLRIADKFTQHNFQ [KLHL20] | 2.09 ± 0.21 | 2.02 ± 0.28 | – | –
16 | AFASGSDDATCRLYDLRADREVAI [GNB5] | 3.12 ± 0.22 | 2.95 ± 0.11 | – | –
17 | AFRSDDTKGHPRAVSQPFRLSSSL [CDC14A] | 3.43 ± 0.2 | 3.47 ± 0.26 | – | –
18 | AFYRLADLFGWSQLIYNHITTRVN [ADD1] | 3.25 ± 0.54 | 2.88 ± 0.35 | – | –
19 | AGAARVARWRRLRLQQLRRLRGLL [FBXO33] | 3.13 ± 0.4 | 3.74 ± 0.43 | – | –
20 | AGFCMFVLSLVKKHYRLQFYMFAW [CDS1] | 2.05 ± 0.36 | 2.16 ± 0.38 | – | –
21 | AGGELGISLNMCLLGALVLLGLGV [PBXIP1] | 2.72 ± 1 | 2.7 ± 0.87 | – | –
22 | AGGFQQRQGLKYCLPLTFCIHTGL [FBXO3] | 2.58 ± 0.57 | 2.4 ± 0.24 | – | –
23 | AGPAFDSDPEISDVDEDEPGGLVG [PPFIA4] | 5.19 ± 0.56 | 5.77 ± 0.07 | – | –

Row | Sequence | protein stability index [1] | protein stability index [2] | protein stability index (treatment: DMSO, c terminus: native) | protein stability index (treatment: MLN4924 1 uM, 8 h, c terminus: native)
24 | AGSRQALSFEVPPCNYDPEKWIQ | – | – | 2.69 ± 0.59 | 3.35 ± 0.51
25 | AHEIERLQMEMKEDDVSFLMKHKS [TRIM35] | 4.83 ± 0.24 | 4.67 ± 0.25 | – | –
26 | AIETAMEDLKGHVAETSGETIQGF [TPRG1] | 4.82 ± 0.26 | 5.03 ± 0.3 | – | –
27 | AIGALLVCYHYYADWFMSLGVGLL [TMEM40] | 3.087 ± 0.018 | 2.86 ± 0.62 | – | –
28 | AKDLRAPPEQGKIFIARRSLLDEL [SOAT1] | 3.23 ± 0.37 | 3.15 ± 0.33 | – | –
29 | AKPGSTEKGLPLRKTHVLLGRSHD [MFSD9] | 3.79 ± 0.23 | 3.86 ± 0.17 | – | –
30 | AKPNMIISVNGDVITIKSESTFKN [FABP4] | 3 ± 0.56 | 3.03 ± 0.66 | – | –
31 | AKVKGHRSQKHKERIRLLRQKREA [C18orf25] | 4.07 ± 0.57 | 4.38 ± 0.16 | – | –
32 | AKVNILLVENDQQLQKILSIPQSS [ACSBG2] | 2.21 ± 0.17 | 2.07 ± 0.18 | – | –
33 | ALAAATAAAAAAASAAAATAAFTT [SPAG8] | 3.04 ± 0.18 | 3.25 ± 0.18 | – | –
34 | ALGSRGWEPFDWGRLLEALCREEP [FANCE] | 2.61 ± 0.2 | 2.82 ± 0.33 | – | –
35 | ALIPYVLNPSKLMEKEINGSKVTC [ATL3] | 2.13 ± 0.2 | 2.2 ± 0.39 | – | –
36 | ALSGASQPGPSGAPAQRATRGFLR [RETREG3] | 4.59 ± 0.16 | 4.78 ± 0.073 | – | –
37 | AMELKVEDPFYWVSPGVLVLLAVL [MOG] | 2.8 ± 0.94 | 2.55 ± 0.34 | – | –
38 | AMEVNTSASEILYSAPPGDPLSTN [NFE2L1] | 4.45 ± 0.27 | 4.55 ± 0.23 | – | –
39 | AMPDPAGPDGHLPAVATLCDLFDR [ESRRA] | 4.27 ± 0.23 | 4.4 ± 0.23 | – | –
40 | ANAAKHTQDSARVNPQDGTNTLTR [EHMT1] | 5.13 ± 0.18 | 5.19 ± 0.14 | – | –
41 | ANPSIRDKEGYNSIHYAAAYGHRQ [ANKRD44] | 3.52 ± 0.22 | 3.6 ± 0.3 | – | –
42 | ANRWSFEGMDRWIKKIEEHAPGVP [RAB40A] | 3.33 ± 0.26 | 3.4 ± 0.33 | – | –
43 | APADPTAREGLAAPPRRLRSRKVS [FCHO1] | 5.12 ± 0.16 | 5.304 ± 0.013 | – | –
44 | APELVERVQSVDFMRTDPVCQKLL [KLHL14] | 3.85 ± 0.36 | 4.12 ± 0.2 | – | –
45 | APLQSVFQGQKTELNNCISMLVAG [TRIM63] | 2.85 ± 0.19 | 2.88 ± 0.22 | – | –
46 | APSIDLFSTDAFSSPPQGASPVPE [SNAP91] | 4.94 ± 0.34 | 5.04 ± 0.21 | – | –

Row | Sequence | protein stability index [1] | protein stability index [2] | protein stability index (treatment: DMSO, c terminus: native) | protein stability index (treatment: MLN4924 1 uM, 8 h, c terminus: native)
47 | APWLSLFPPEGNMEDKEMTGPQLP [ZNF263] | 4.27 ± 0.27 | 4.75 ± 0.28 | – | –
48 | AQEKAADVQARLNRSDHGIFHSRT [FCHSD1] | 4.19 ± 0.072 | 4.37 ± 0.48 | – | –
49 | AQEVRPRRWKLQVLDLRKNSHQDF [PRAME] | 2.64 ± 0.37 | 2.96 ± 0.31 | – | –
50 | AQTFLFQGQPVVNRPLSLKDQQTF [TRADD] | 3.25 ± 0.26 | 3.39 ± 0.23 | – | –
51 | AQVFPESPESESDHEHEEADLELS [GNAS] | 5.44 ± 0.27 | 5.46 ± 0.23 | – | –
52 | ARMLFSAVEWARNIPFFPDLQITD [NR2F2] | 2.1 ± 0.21 | 2.09 ± 0.28 | – | –
53 | ARQATNLKVNFFFERIMKYERLAR [FBXO39] | 2.75 ± 0.82 | 2.41 ± 0.32 | – | –
54 | ASETFNYSAIDRVKSRGKRLALEK [PI4K2A] | 4.22 ± 0.044 | 4.4 ± 0.26 | – | –
55 | ASFHHKLHHKRLAKECMLQEENKS [CBY2] | 4.1 ± 0.26 | 4.27 ± 0.2 | – | –
56 | ASKEEKEDWLSHALSRKKSQGLAR [FBF1] | 4.57 ± 0.18 | 4.57 ± 0.32 | – | –
57 | ASTPTPDDKLFQKLAKVYSYAHGW [CPN1] | 2.38 ± 0.14 | 2.33 ± 0.26 | – | –
58 | ATALAPLQTDHYAALLGSNSESWG [SPSB2] | 3.31 ± 0.32 | 3.28 ± 0.14 | – | –
59 | ATFLVTFGNSEKPETMTCRLSNNQ [ZFYVE21] | 2.39 ± 0.15 | 2.24 ± 0.19 | – | –
60 | ATQIQQLLQDKQFELALQLAEMKD [VPS39] | 3.11 ± 0.32 | 3.41 ± 0.43 | – | –
61 | ATRVAPERLFGSAANVVSAKRNRL [ZBED1] | 3.83 ± 0.28 | 3.82 ± 0.14 | – | –
62 | AVHLCNALVCQVDNDHKEAVGKMG [ZER1] | 3.75 ± 0.23 | 3.77 ± 0.13 | – | –
63 | AVNLSVSTLPSLREEEEQVRAHAP [KCNG1] | 3.83 ± 0.54 | 4.21 ± 0.44 | – | –
64 | AWKHGNIHLSAPCIYSEVMEALDL [PCMTD2] | 2.71 ± 0.26 | 2.73 ± 0.27 | – | –
65 | CDPGTDPCPEDASTPRPPEASSSP [TLE6] | 5.61 ± 0.26 | 5.58 ± 0.28 | – | –
66 | CEEKAKKNANRPLLDEIVPVYRRD [ACBD3] | 4.72 ± 0.18 | 4.61 ± 0.55 | – | –
67 | CETCVGSWSIQMRQHHHQSSFPGS | 2.37 ± 0.3 | 2.34 ± 0.44 | – | –
68 | CGLLPISPEALSLGEVAYHDYHGI [ADD1] | 2.18 ± 0.24 | 2.35 ± 0.41 | – | –
69 | CGSARPKPYDPPGEKMVAAKVKGE [ATF4] | 4.57 ± 0.17 | 4.82 ± 0.33 | – | –

Row | Sequence | protein stability index [1] | protein stability index [2] | protein stability index (treatment: DMSO, c terminus: native) | protein stability index (treatment: MLN4924 1 uM, 8 h, c terminus: native)
70 | CKAFFKRSIQGHNDYICPATNQCT [ESR2] | 2.15 ± 0.4 | 2.45 ± 0.51 | – | –
71 | CKSGAAAKGGFSGCSAVLSGGSSS [KRT71] | 3.26 ± 0.46 | 3.44 ± 0.066 | – | –
72 | CLLSSNSRSLLTGGYNLASVSVWD [TLE6] | 2.4 ± 0.38 | 2.18 ± 0.18 | – | –
73 | CNGILTEKMEEEEQTCDPDSSLHW [ZNF396] | 5.13 ± 0.18 | 5.01 ± 0.28 | – | –
74 | CNTFVYSSSKGTIRLCDMRASALC [PPP2R2B] | 2.5 ± 0.53 | 2.34 ± 0.51 | – | –
75 | CPLTRSNGDLSRSLSPSPLGSSAA [FCHO1] | 4.17 ± 0.22 | 4.17 ± 0.33 | – | –
76 | CQGVSEAAHRLARRLYHLEGFQRC [PSD2] | 2.41 ± 0.21 | 2.54 ± 0.17 | – | –
77 | CQLALQQKRETLSPLCLIPMVTSP [KCTD13] | 2.27 ± 0.16 | 2.19 ± 0.17 | – | –
78 | CRKFPRDMKAMSPENQEYFEKHRW [RHOBTB2] | 3.22 ± 0.2 | 3.18 ± 0.29 | – | –
79 | CSSFMAPPVTDLGELRRRPGDMKT [CPOX] | 3.43 ± 0.3 | 3.31 ± 0.48 | – | –
80 | CTDHELENHSMYCVQCKMPVCYQC [TRIM9] | 4.23 ± 0.23 | 4.33 ± 0.36 | – | –
81 | CYEHFAELDIPQSVQQNGSIYIHV [CLPTM1] | 2.75 ± 0.48 | 2.98 ± 0.45 | – | –
82 | DAAAILLDEQNKRPCRKFLLTGQC [ZMAT5] | 2.98 ± 0.45 | 3 ± 0.59 | – | –
83 | DAGSPYLIGLISDRLRRNWPPSFL [SPNS1] | 2.22 ± 0.28 | 2.08 ± 0.25 | – | –
84 | DAINEEIRMIQEEKESTELRAEEI [PPFIA4] | 5.71 ± 0.15 | 5.51 ± 0.25 | – | –
85 | DALQRYGTSHGAPPARGPRMSYGG [RBMY1A1] | 3.82 ± 0.23 | 3.82 ± 0.21 | – | –
86 | DAQEIMQSLRDLGVKISEQQAEKI [SLC25A25] | 3.81 ± 0.21 | 3.79 ± 0.47 | – | –
87 | DASVQPGPFRTLLQFLYTGQLDEK [RHOBTB1] | 2.51 ± 0.33 | 2.72 ± 0.3 | – | –
88 | DDDAQILPSPVQACSEDSLFLRCS [DRICH1] | 4.17 ± 0.16 | 4.02 ± 0.37 | – | –
89 | DDDKYKITLKYPHYFPVMKKCCIP [NLN] | 2.9 ± 0.23 | 2.49 ± 0.47 | – | –
